Data: PMC9845149, “Interplay between C1-inhibitor and group IIA secreted phospholipase A2 impairs their respective function” (Immunologic Research, 2022)

Biological target: T1, human plasma-derived C1-esterase inhibitor (human, UniProt P05155 23-500)
T1 construct: Glycoprotein from plasma; also called pdC1-INH; C1-INH; source: bought: Cinryze, Takeda Pharmaceutical Company (human plasma-derived); also in plasma of healthy donors (functional assay)
T1 sequence (looked up): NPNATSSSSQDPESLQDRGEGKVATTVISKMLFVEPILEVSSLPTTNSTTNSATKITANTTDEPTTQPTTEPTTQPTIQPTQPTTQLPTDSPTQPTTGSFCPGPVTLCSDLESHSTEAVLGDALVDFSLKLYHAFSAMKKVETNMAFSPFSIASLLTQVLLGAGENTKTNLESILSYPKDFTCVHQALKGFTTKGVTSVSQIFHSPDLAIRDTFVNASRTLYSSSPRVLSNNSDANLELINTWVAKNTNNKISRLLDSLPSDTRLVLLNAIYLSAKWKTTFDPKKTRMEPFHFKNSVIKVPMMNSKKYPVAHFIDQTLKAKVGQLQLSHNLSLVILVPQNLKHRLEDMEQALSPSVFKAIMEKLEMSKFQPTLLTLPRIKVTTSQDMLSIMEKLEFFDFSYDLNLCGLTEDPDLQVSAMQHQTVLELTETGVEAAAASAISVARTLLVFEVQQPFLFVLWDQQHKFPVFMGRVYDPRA
Assay: SPR; Biacore 3000; hGIIA N1A immobilised at 800 RU on a CM5 chip (EDC/NHS), BSA as reference channel; C1-INH injected at 10, 20, 30, 40, 50 µM in HBS (10 mM Hepes, pH 7.4, 150 mM NaCl, 3 mM EDTA), 30 µL/min; 1:1 Langmuir model
Conditions: both partners purified

B1: Recombinant human group IIA secreted phospholipase A2, N1A catalytically active mutant (enzyme, UniProt P14555 21-144, looked up)
chain: ALVNFHRMIKLTTGKEAALSYGFYGCHCGVGGRGSPKDATDRCCVTHDCCYKRLEKRGCGTKFLSYKFSNSGSRITCAKQDSCRSQLCECDKAAATCFARNKTTYNKKYQYYSNKHCRGSTPRC
notes: human group IIA secreted phospholipase A2 (hGIIA), UniProt P14555; N1A mutation facilitates the removal of the initiator methionine; PDB 1DCY chain A covers aa 1-124; also called hGIIA; hGIIA N1A
B1 was tested, and the Kd was 6.7 µM and the koff was 0.0125 s⁻¹.
